The data set deals with free tubulin (tubulin dimers) of isolated rat cardiomyocytes.

Positions count from the first letter of the chain named. Names and notes keep the numbering of the source.

B1: tubulin tyrosine ligase (TTL) (protein)
chain: MYTFVVRDENSSVYAEVSRLLLATGHWKRLRRDNPRFNLMLGERNRLPFGRLGHEPGLVQLVNYYRGADKLCRKASLVKLIKTSPELAESCTWFPESYVIYPTNLKTPVAPAQNGIQPPISNSRTDEREFFLASYNRKKEDGEGNVWIAKSSAGAKGEGILISSEASELLDFIDNQGQVHVIQKYLEHPLLLEPGHRKFDIRSWVLVDHQYNIYLYREGVLRTASEPYHVDNFQDKTCHLTNHCIQKEYSKNYGKYEEGNEMFFKEFNQYLTSALNITLESSILLQIKHIIRNCLLSVEPAISTKHLPYQSFQLFGFDFMVDEELKVWLIEVNGAPACAQKLYAELCQGIVDIAISSVFPPPDVEQPQTQPAAFIKL
B1: the “free:polymerized tubulin ratio (microtubule fractionation assay, western blot, isolated rat cardiomyocytes)” value was “Both TTL and TTL-E331Q overexpression increased the amount of free tubulin relative to polymerized microtubules”.

B2: TTL catalytic-dead construct (TTL-E331Q) (protein)
chain: B1 chain with E331Q
In the case of B2, the “free:polymerized tubulin ratio (microtubule fractionation assay, western blot, isolated rat cardiomyocytes)” value was “Both TTL and TTL-E331Q overexpression increased the amount of free tubulin relative to polymerized microtubules”.

The record behind these values is patent US20230140435.
